The values that follow come from the RNAGym collection of RNA variant scans (doi:10.7554/elife.80360).

B1: HDV Ribozyme (parent)
chain: GGCCGGCAUGGUCCCAGCCUCCUCGCUGGCGCCGGCUGGGCAACAUUCCGAGGGGACCGUCCCCUCGGUAAUGGCGAAUGGGACCCA

The variants in this series derive from B1. As to the kind of experiment: self-cleavage, relative activity (ratio to wild type); higher = more cleavage; co-transcriptional.
With C48G A70C, the self-cleavage came to 0.6.

As for C48G G73U, the self-cleavage came out at 0.506.

On to C48G G73A, for which the self-cleavage amounted to 0.623.

For C48G G73C, the self-cleavage came to 0.403.

In the case of C48A U79A, the self-cleavage came to 0.974.

On to U47G G81A, for which the self-cleavage was 0.237.

Turning to U47G G81U, the self-cleavage turned out to be 0.214.

As to C48U G67C, the self-cleavage was 1.01.

As to C48U G67U, the self-cleavage was 1.27.

Turning to U47G C49A, the self-cleavage came out at 1.09.

Consider C48U C63A, for which the self-cleavage worked out at 0.791.

C48A A83C: the self-cleavage stood at 0.317.

C48A A83G: the self-cleavage was found to be 0.791.

On to C48G U69A, for which the self-cleavage stood at 0.956.

Turning to C49G C58G, the self-cleavage amounted to 0.855.

As to C49G C58U, the self-cleavage is 1.05.

With C49A G74C, the self-cleavage was 0.0755.

Regarding U47G G74C, the self-cleavage was 0.222.

As to U47G G74A, the self-cleavage came out at 0.435.

Take C48G C61A: the self-cleavage was 0.927.

In the case of C48G C61U, the self-cleavage amounted to 0.876.

Take C48U C62U: the self-cleavage stood at 1.15.

C48U C62A: the self-cleavage was 0.847.

Turning to C48U C62G, the self-cleavage was found to be 0.485.

Regarding U47G C75G, the self-cleavage was found to be 0.317.

As to C49G C61A, the self-cleavage worked out at 0.848.

As for C49G C61U, the self-cleavage turned out to be 0.432.

Turning to U47C U60G, the self-cleavage turned out to be 0.935.

For U47G U69C, the self-cleavage is 0.727.

With U47G C84U, the self-cleavage was 0.346.

For C48G U72G, the self-cleavage turned out to be 0.369.

U47G C61A: the self-cleavage came out at 1.2.

As to C48U C61A, the self-cleavage came out at 0.87.

As for C48U C61G, the self-cleavage is 0.855.

Take C48G G80A: the self-cleavage was determined as 0.4.

As for C48A G50U, the self-cleavage was 1.17.

Regarding C48A G50A, the self-cleavage stood at 0.969.

Take C48A G50C: the self-cleavage turned out to be 1.11.

On to C48A C61U, for which the self-cleavage came to 0.911.

C48A C61G: the self-cleavage amounted to 1.03.

As for C48G A56G, the self-cleavage came to 1.03.

With U47G A70G, the self-cleavage is 1.01.

Regarding U47G, the self-cleavage amounted to 1.09.

Regarding C48A G52A, the self-cleavage amounted to 0.926.

With U47C G54C, the self-cleavage was 0.554.

Consider U47C G54A, for which the self-cleavage is 1.04.

With C48U U79C, the self-cleavage worked out at 0.45.

C49A G68A: the self-cleavage worked out at 0.742.

In the case of C48U G76C, the self-cleavage turned out to be 1.16.

On to C48A U65C, for which the self-cleavage was found to be 0.98.

Take C48A U65G: the self-cleavage came out at 0.954.

With C48G G54U, the self-cleavage is 0.726.

For the variant C48G G54C, the self-cleavage worked out at 0.665.

Regarding U47C G81U, the self-cleavage is 0.443.

As to U47C G81A, the self-cleavage came out at 0.332.

On to C48A G80C, for which the self-cleavage was 0.169.

In the case of C48U C84G, the self-cleavage was 0.712.

In the case of C48A G73C, the self-cleavage was 0.618.

For C48A G73U, the self-cleavage was found to be 0.422.

With C48U A83U, the self-cleavage was 0.475.

As for C48U A83G, the self-cleavage is 0.671.

Turning to C48U A83C, the self-cleavage stood at 0.906.

C48U G68A: the self-cleavage came to 0.885.

With C49A C84G, the self-cleavage stood at 0.743.

C49A C84U: the self-cleavage amounted to 0.686.

As to C48U G73U, the self-cleavage was found to be 0.521.

For C48U G73A, the self-cleavage worked out at 0.526.

In the case of U47C G80C, the self-cleavage was determined as 0.138.

U47C G80A: the self-cleavage came to 0.215.

With C49A A51U, the self-cleavage amounted to 0.539.

Take C48U G50C: the self-cleavage was 0.965.

On to C48U U65C, for which the self-cleavage is 1.07.

With C48U U65G, the self-cleavage was found to be 0.748.

With C49A C66G, the self-cleavage is 0.96.

As for C48G C49U, the self-cleavage was 1.08.

In the case of C48U G74U, the self-cleavage amounted to 0.554.

U47C G74A: the self-cleavage came out at 0.233.

As to U47G A56G, the self-cleavage was determined as 1.08.

U47G A56C: the self-cleavage was 1.09.

As for U47G A56U, the self-cleavage stood at 1.11.

On to C49A C58U, for which the self-cleavage was determined as 1.04.

With C49A C58A, the self-cleavage stood at 0.986.

With C49A C58G, the self-cleavage amounted to 0.988.

With C48G C84G, the self-cleavage was 0.646.

As for U47G C63A, the self-cleavage stood at 1.06.

Consider C48U C58U, for which the self-cleavage stood at 0.904.

In the case of C48A G74A, the self-cleavage is 0.7.

On to C48G C75A, for which the self-cleavage stood at 0.175.

Regarding C48G C75U, the self-cleavage was 0.285.

For the variant C48G G50C, the self-cleavage is 0.939.

As for C48G G50A, the self-cleavage was found to be 0.798.

With C48U A77C, the self-cleavage was determined as 0.57.

Consider C48U A77G, for which the self-cleavage is 0.612.

Turning to U47G G68U, the self-cleavage was 1.01.

With U47G G68C, the self-cleavage amounted to 0.499.

In the case of U47G G68A, the self-cleavage worked out at 0.831.

Consider C49G A51U, for which the self-cleavage was determined as 0.554.

Regarding C49A G59U, the self-cleavage was determined as 0.945.

As to C49A G59C, the self-cleavage worked out at 1.08.

On to C48G U60G, for which the self-cleavage amounted to 1.01.

In the case of C48G U60C, the self-cleavage turned out to be 0.969.

Regarding C48U U60A, the self-cleavage was 1.

In the case of C48U U60G, the self-cleavage is 0.776.

Regarding C48G G68A, the self-cleavage came to 0.723.

As to C48G G68U, the self-cleavage was 0.88.

On to C49A G50A, for which the self-cleavage came out at 0.929.

In the case of C49A G50U, the self-cleavage was 0.816.

On to C48U A78U, for which the self-cleavage came to 0.298.

For U47G C64A, the self-cleavage came to 0.875.

Consider C48A C64A, for which the self-cleavage is 0.867.

In the case of C48A C64G, the self-cleavage came to 0.786.

As to C49A A87U, the self-cleavage was 0.857.

For C48A C85G, the self-cleavage came to 0.867.

For the variant C48A C85U, the self-cleavage came out at 1.16.

Regarding C48A C85A, the self-cleavage worked out at 0.717.

Take C49A G73C: the self-cleavage came to 0.293.

Consider C48G A87U, for which the self-cleavage was determined as 1.09.

Take C48A U72G: the self-cleavage amounted to 0.525.

In the case of C48A U72A, the self-cleavage was 0.456.

As for C48G A71C, the self-cleavage amounted to 1.03.

For the variant C48A A70G, the self-cleavage was determined as 1.11.

In the case of C48A A70C, the self-cleavage was determined as 0.957.

Take U47C G59A: the self-cleavage came to 0.954.

Turning to C48U G81C, the self-cleavage was found to be 0.381.

On to C48U G81A, for which the self-cleavage was found to be 0.308.

On to C48A G81C, for which the self-cleavage was 0.193.

Consider C48A G81U, for which the self-cleavage came out at 0.338.

With C48A G81A, the self-cleavage stood at 0.448.

As to C48U A71C, the self-cleavage amounted to 0.789.

On to C48U A71U, for which the self-cleavage was found to be 0.585.

On to U47G G55C, for which the self-cleavage is 1.07.

Regarding U47G G55A, the self-cleavage was found to be 0.939.

On to C48G G82A, for which the self-cleavage was found to be 0.403.

As to U47C G52C, the self-cleavage stood at 0.917.

In the case of U47C G52A, the self-cleavage was 0.853.

For the variant U47C U69A, the self-cleavage is 0.762.

With U47C U69G, the self-cleavage is 1.02.

On to C49A A77U, for which the self-cleavage amounted to 0.404.

On to C49A A77G, for which the self-cleavage was determined as 0.458.

On to C49A A77C, for which the self-cleavage was found to be 0.252.

Regarding U47G G76C, the self-cleavage came out at 0.727.

As to U47G G76A, the self-cleavage stood at 1.25.

On to C49A C64U, for which the self-cleavage stood at 0.831.

In the case of C48G G81U, the self-cleavage turned out to be 0.424.

As for C48G G74U, the self-cleavage was 0.509.

As for U47G G67A, the self-cleavage was 0.831.

As for U47G G67U, the self-cleavage was 0.929.

Regarding U47G G67C, the self-cleavage worked out at 0.554.

With C48A C62G, the self-cleavage was found to be 0.359.

In the case of C48A C75U, the self-cleavage was determined as 0.339.

Turning to C48A C75A, the self-cleavage stood at 0.326.

C48A C75G: the self-cleavage came out at 0.142.

Take U47C G82U: the self-cleavage came to 0.111.

Consider U47C G82C, for which the self-cleavage came out at 0.185.

On to U47C G82A, for which the self-cleavage worked out at 0.401.

Turning to C48G A83U, the self-cleavage was 0.554.

For the variant C48G A83G, the self-cleavage is 0.779.

C48G A83C: the self-cleavage is 0.573.

Consider C48G C86U, for which the self-cleavage amounted to 0.932.

In the case of U47G G59C, the self-cleavage was 1.16.

As to C49A C86U, the self-cleavage amounted to 0.795.

Regarding C49A C86A, the self-cleavage stood at 1.22.

As for C48G A51U, the self-cleavage was determined as 1.02.

As for C48G A51C, the self-cleavage is 0.88.

Regarding C48G A51G, the self-cleavage amounted to 0.997.

In the case of C48G A77G, the self-cleavage stood at 0.755.

With C48G A77C, the self-cleavage came to 0.323.
